Biological target: phospho-Ser 2 carboxy-terminal domain (CTD) RNA polymerase II (human (endogenous in hSAECs)), P24928
Experiment: proximity ligation; Duolink in situ PLA, mouse anti-IRF1 and rabbit anti-pSer2 Pol II Abs, fixed and permeabilized hSAECs, mock or RSV infected (MOI 1, 24 h), solvent
Conditions: remark: other sources report otherwise

PLA foci/nucleus (RSV infected): 24 foci/nucleus
PLA foci/nucleus (mock infected): 6.3 foci/nucleus
fold increase of PLA complex, RSV against mock: 25 fold
percent of cells with PLA complexes (uninfected): > 90 % of cells
B1: interferon regulatory factor 1 (IRF1), P10914 1-325 (natural protein)
chain: MPITRMRMRPWLEMQINSNQIPGLIWINKEEMIFQIPWKHAAKHGWDINKDACLFRSWAIHTGRYKAGEKEPDPKTWKANFRCAMNSLPDIEEVKDQSRNKGSSAVRVYRMLPPLTKNQRKERKSKSSRDAKSKAKRKSCGDSSPDTFSDGLSSSTLPDDHSSYTVPGYMQDLEVEQALTPALSPCAVSSTLPDWHIPVEVVPDSTSDLYNFQVSPMPSTSEATTDEDEEGKLPEDIMKLLEQSEWQPTNVDGKGYLLNEPGVQPTSVYGDFSCKEEPEIDSPGGDIGLSLQRVFTDLKNMDATWLDSLLTPVRLPSIQAIPCAP
modifications: here or on the partner: phospho-Ser 2 of the carboxy-terminal domain (CTD)

Reference: publication PMC11004252
